First the molecules themselves.
B1: recombinant IL-6 (ligand)
chain: FPTSQVRRGDFTEDTTPNRPVYTTSQVGGLITHVLWEIVEMRKELCNGNSDCMNNDDALAENNLKLPEIQRNDGCYQTGYNQEICLLKISSGLLEYHSYLEYMKNNLKDNKKDKARVLQRDTETLIHIFNQEVKDLHKIVLPTPISNALLTDKLESQKEWLRTKTIQFILKSLEEFLKVTLRSTRQT
B2: recombinant IFN-γ (ligand)
chain: HGTVIESLESLNNYFNSSGIDVEEKSLFLDIWRNWQKDGDMKILQSQIISFYLRLFEVLKDNQAISNNISVIESHLITTFFSNSKAKKDAFMSIAKFEVNNPQVQRQAFNELIRVVHQLLPESSLRKRKRSRC
B3: recombinant IL-10 (ligand)
chain: SRGQYSREDNNCTHFPVGQSHMLLELRTAFSQVKTFFQTKDQLDNILLTDSLMQDFKGYLGCQALSEMIQFYLVEVMPQAEKHGPEIKEHLNSLGEKLKTLRMRLRRCHRFLPCENKSKAVEQVKSDFNKLQDQGVYKAMNEFDIFINCIEAYMMIKMKS
B4: recombinant IL-12 (complex)
chain 1: RVIPVSGPARCLSQSRNLLKTTDDMVKTAREKLKHYSCTAEDIDHEDITRDQTSTLKTCLPLELHKNESCLATRETSSTTRGSCLPPQKTSLMMTLCLGSIYEDLKMYQTEFQAINAALQNHNHQQIILDKGMLVAIDELMQSLNHNGETLRQKPPVGEADPYRVKMKLCILLHAFSTRVVTINRVMGYLSSA
chain 2: MWELEKDVYVVEVDWTPDAPGETVNLTCDTPEEDDITWTSDQRHGVIGSGKTLTITVKEFLDAGQYTCHKGGETLSHSHLLLHKKENGIWSTEILKNFKNKTFLKCEAPNYSGRFTCSWLVQRNMDLKFNIKSSSSSPDSRAVTCGMASLSAEKVTLDQRDYEKYSVSCQEDVTCPTAEETLPIELALEARQQNKYENYSTSFFIRDIIKPDPPKNLQMKPLKNSQVEVSWEYPDSWSTPHSYFSLKFFVRIQRKKEKMKETEEGCNQKGAFLVEKTSTEVQCKGGNVCVQAQDRYYNSSCSKWACVPCRVRS
B5: recombinant IL-17A (ligand)
chain: AAIIPQSSACPNTEAKDFLQNVKVNLKVFNSLGAKVSSRRPSDYLNRSTSPWTLHRNEDPDRYPSVIWEAQCRHQRCVNAEGKLDHHMNSVLIQQEILVLKREPESCPFTFRVEKMLVGVGCTCVASIVRQAA
B6: GST-fused mouse IFN-α (ligand)
chain: CDLPHTYNLRNKRALKVLAQMRRLPFLSCLKDRQDFGFPLEKVDNQQIQKAQAIPVLRDLTQQTLNLFTSKASSAAWNATLLDSFCNDLHQQLNDLQTCLMQQVGVQEPPLTQEDALLAVRKYFHRITVYLREKKHSPCAWEVVRAEVWRALSSSVNLLPRLSEEKE

This assay concerns the target T1, recombinant mouse sortilin (mouse, UniProt Q6PHU5 74-754).
T1 chain: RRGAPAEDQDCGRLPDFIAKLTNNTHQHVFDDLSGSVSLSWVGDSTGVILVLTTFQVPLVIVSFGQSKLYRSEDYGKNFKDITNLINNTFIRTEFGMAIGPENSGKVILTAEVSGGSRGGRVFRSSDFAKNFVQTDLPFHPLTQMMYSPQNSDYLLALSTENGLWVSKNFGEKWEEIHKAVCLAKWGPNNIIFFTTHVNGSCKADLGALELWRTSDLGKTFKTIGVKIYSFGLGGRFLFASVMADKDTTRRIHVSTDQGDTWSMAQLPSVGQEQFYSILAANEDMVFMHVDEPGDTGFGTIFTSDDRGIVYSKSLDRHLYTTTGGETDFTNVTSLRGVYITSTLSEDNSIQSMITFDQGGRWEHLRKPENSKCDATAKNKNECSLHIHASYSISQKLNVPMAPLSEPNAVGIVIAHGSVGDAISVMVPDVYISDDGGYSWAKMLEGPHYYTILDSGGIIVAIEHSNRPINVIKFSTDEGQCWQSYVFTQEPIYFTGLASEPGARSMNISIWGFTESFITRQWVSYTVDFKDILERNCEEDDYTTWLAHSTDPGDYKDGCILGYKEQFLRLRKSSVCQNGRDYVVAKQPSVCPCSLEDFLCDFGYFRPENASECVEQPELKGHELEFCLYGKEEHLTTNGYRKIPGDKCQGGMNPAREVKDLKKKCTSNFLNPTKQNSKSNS
The assay can be described thus: SPR.
What is called Kd is the free concentration of one partner at which half of the binding sites on the other are occupied at equilibrium, for simple one-to-one binding. For the molecule B1, the Kd amounted to 1100 nM.
With B2, the Kd came to 2600 nM.
In the case of B3, the Kd was determined as 287 nM.
B4: the Kd was 13.6 nM.
With B5 the figure was 335 nM; with B6, 550 nM.
